US20200040059A1

target: PD-1 (Homo sapiens (Human)) (UniProt Q15116); assay: flow cytometry, Jurkat/PD-1 cells
Sequence (Q15116 21-288 limits assumed, form in doubt): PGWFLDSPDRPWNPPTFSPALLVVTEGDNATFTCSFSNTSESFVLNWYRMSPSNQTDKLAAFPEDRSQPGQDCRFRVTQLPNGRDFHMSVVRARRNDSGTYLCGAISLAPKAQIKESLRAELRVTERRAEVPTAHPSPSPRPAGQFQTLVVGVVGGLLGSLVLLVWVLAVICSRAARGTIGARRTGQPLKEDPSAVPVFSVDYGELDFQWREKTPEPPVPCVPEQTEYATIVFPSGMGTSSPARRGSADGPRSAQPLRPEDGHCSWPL

MFI at 50 nM	Substance
614	variant PD-L2 IgV-Fc E44D, V89D, W91R (Fc fusion)
16000	variant PD-L2 IgV-Fc H15Q, S67L, I86T (Fc fusion)
830	variant PD-L2 IgV-Fc H15Q, C23S, I86T (Fc fusion)
61000	variant PD-L2 IgV-Fc I13V, H15Q, E44V, T47A, Q82R, V89D (Fc fusion)

target: T1, CD96 (UniProt P40200); assay: flow cytometry, CD96-expressing cells
T1 sequence (looked up): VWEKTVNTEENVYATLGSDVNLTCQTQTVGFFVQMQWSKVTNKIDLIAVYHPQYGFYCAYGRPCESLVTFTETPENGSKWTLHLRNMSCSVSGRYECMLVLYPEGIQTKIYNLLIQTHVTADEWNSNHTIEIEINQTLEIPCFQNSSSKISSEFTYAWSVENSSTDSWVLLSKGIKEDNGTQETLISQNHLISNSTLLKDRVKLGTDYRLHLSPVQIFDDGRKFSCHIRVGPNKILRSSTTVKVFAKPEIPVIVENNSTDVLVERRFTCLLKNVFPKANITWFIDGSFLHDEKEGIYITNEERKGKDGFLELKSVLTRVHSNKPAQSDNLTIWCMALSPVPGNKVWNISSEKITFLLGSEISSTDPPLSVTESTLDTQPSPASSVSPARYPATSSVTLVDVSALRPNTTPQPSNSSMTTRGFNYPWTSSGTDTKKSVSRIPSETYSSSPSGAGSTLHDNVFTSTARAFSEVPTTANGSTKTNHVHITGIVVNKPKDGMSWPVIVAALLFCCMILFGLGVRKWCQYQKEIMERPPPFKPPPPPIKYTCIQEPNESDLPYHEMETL

MFI at 100 nM [MFI]	Substance
1630	CD155 variant IgV-Fc P18F, T26M, L44V, Q62K, L79P, F91S, L104M, G111D (from UniProt P15151 24-139) (Fc fusion)
2570	CD155 variant IgV-Fc P18S, S65W, S67A, M90V, V95A, L104Q, G111R (from UniProt P15151 24-139) (Fc fusion)
3700	CD155 variant IgV-Fc P18H, S42G, T45I, S52T, G53R, S54H, V57L, H59E, T61S, S65D, E68G, L104N (Fc fusion)

target: human CD28, full-length, expressed on transfected Expi293 cells (human) (UniProt P10747); assay: flow cytometry on CD28-expressing Expi293 cells

Substance	MFI [MFI]	MFI parental ratio (ratio to WT CD80 ECD-Fc)
CD80 variant K36E/I67T/L70Q/A91G/T120S/T130A/N152T ECD-Fc fusion (from UniProt P33681 35-242)	8	–
CD80 variant T28S/L70Q/A91G/E95K/T120S/T130A ECD-Fc fusion (from UniProt P33681 35-242)	32	–
CD80 variant N63S/L70Q/A91G/T120S/T130A ECD-Fc fusion (from UniProt P33681 35-242)	124	–
CD80 variant K37E/F59S/L70Q/A91G/T120S/T130A ECD-Fc fusion (from UniProt P33681 35-242)	20	–
CD80 variant V4M/L70Q/A91G/T120S/T130A ECD-Fc fusion	89	0.94

Now from value to substance:

MFI [MFI]	MFI parental ratio (ratio to WT CD80 ECD-Fc)	Substance
1070	0.08	CD80 variant E24G/R29D/Y31L/Q33H/K36G/M38I/T41A/M43R/M47T/F59L/E81V/L85R/K89N/A91T/F92P/K93V/R94L/H96R ECD-Fc fusion
41700	–	CD80 variant K89R/D90K/A91G/F92Y/K93R/N122S/N178S ECD-Fc fusion (from UniProt P33681 35-242)
39	–	CD80 variant A91G/S103P ECD-Fc fusion (from UniProt P33681 35-242)

target: human PD-L1, full-length, expressed on transfected Expi293 cells (human) (UniProt Q9NZQ7); assay: flow cytometry on PD-L1-expressing Expi293 cells
Sequence (Q9NZQ7 19-290 limits assumed): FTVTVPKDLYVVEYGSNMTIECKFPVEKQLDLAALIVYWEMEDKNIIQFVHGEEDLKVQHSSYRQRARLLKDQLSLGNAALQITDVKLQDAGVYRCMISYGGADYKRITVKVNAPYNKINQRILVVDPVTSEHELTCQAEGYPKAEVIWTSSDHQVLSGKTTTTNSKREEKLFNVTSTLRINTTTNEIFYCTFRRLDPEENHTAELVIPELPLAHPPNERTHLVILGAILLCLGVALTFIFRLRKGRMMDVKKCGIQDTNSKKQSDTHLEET

Substance	MFI [MFI]	MFI parental ratio (ratio to WT CD80 ECD-Fc)
CD80 variant K36E/I67T/L70Q/A91G/T120S/T130A/N152T ECD-Fc fusion (from UniProt P33681 35-242)	5	–
CD80 variant T28S/L70Q/A91G/E95K/T120S/T130A ECD-Fc fusion (from UniProt P33681 35-242)	6	–
CD80 variant N63S/L70Q/A91G/T120S/T130A ECD-Fc fusion (from UniProt P33681 35-242)	6	–
CD80 variant K37E/F59S/L70Q/A91G/T120S/T130A ECD-Fc fusion (from UniProt P33681 35-242)	6	–
CD80 variant V4M/L70Q/A91G/T120S/T130A ECD-Fc fusion	6	0.09

The remaining lines, values ahead:

MFI [MFI]	MFI parental ratio (ratio to WT CD80 ECD-Fc)	Substance
6	–	CD80 variant E52G/L70Q/A91G/T120S/T130A ECD-Fc fusion (from UniProt P33681 35-242)
1120	0.06	CD80 variant E24G/R29D/Y31L/Q33H/K36G/M38I/T41A/M43R/M47T/F59L/E81V/L85R/K89N/A91T/F92P/K93V/R94L/H96R ECD-Fc fusion
9	–	CD80 variant A91G/S103P ECD-Fc fusion (from UniProt P33681 35-242)

target: human CTLA-4, full-length, expressed on transfected Expi293 cells (human) (UniProt P16410); assay: flow cytometry on CTLA-4-expressing Expi293 cells
Sequence (P16410 36-223 limits assumed): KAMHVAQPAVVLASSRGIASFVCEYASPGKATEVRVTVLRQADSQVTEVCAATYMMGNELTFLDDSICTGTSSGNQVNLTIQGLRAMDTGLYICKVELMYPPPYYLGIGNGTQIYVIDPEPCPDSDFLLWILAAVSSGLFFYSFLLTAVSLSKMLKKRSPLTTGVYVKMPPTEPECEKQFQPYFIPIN

Substance	MFI [MFI]	MFI parental ratio (ratio to WT CD80 ECD-Fc)
CD80 variant T28S/L70Q/A91G/E95K/T120S/T130A ECD-Fc fusion (from UniProt P33681 35-242)	65	–
CD80 variant N63S/L70Q/A91G/T120S/T130A ECD-Fc fusion (from UniProt P33681 35-242)	165	–
CD80 variant K37E/F59S/L70Q/A91G/T120S/T130A ECD-Fc fusion (from UniProt P33681 35-242)	74	–
CD80 variant V4M/L70Q/A91G/T120S/T130A ECD-Fc fusion	263	1.26

Next, values leading:

MFI [MFI]	MFI parental ratio (ratio to WT CD80 ECD-Fc)	Substance
245	–	CD80 variant E52G/L70Q/A91G/T120S/T130A ECD-Fc fusion (from UniProt P33681 35-242)
1020	0.02	CD80 variant E24G/R29D/Y31L/Q33H/K36G/M38I/T41A/M43R/M47T/F59L/E81V/L85R/K89N/A91T/F92P/K93V/R94L/H96R ECD-Fc fusion
14	–	CD80 variant L70Q/A91G/T110A/T120S/T130A ECD-Fc fusion (from UniProt P33681 35-242)
148	–	CD80 variant K89E/T130A ECD-Fc fusion (from UniProt P33681 35-242)
49400	–	CD80 variant K89R/D90K/A91G/F92Y/K93R/N122S/N178S ECD-Fc fusion (from UniProt P33681 35-242)

target: human CD28, full length, on transfected HEK293 cells (human) (UniProt P10747); assay: flow cytometry, Fc fusion at 66.6 nM on HEK293 cells transfected with CD28

MFI at 66.6 nM [MFI]	Substance
4900	CD80 variant IgV-Fc T41S/T57I/L70R (from UniProt P33681 35-141) (Fc fusion)

target: human PD-L1, full length, on transfected HEK293 cells (human) (UniProt Q9NZQ7); assay: flow cytometry, Fc fusion at 22.2 nM on HEK293 cells transfected with PD-L1
Sequence (Q9NZQ7 19-290 limits assumed): as the sequence (Q9NZQ7 19-290 limits assumed) above

MFI at 22.2 nM [MFI]	Substance
19500	CD80 variant IgV-Fc T41S/T57I/L70R (from UniProt P33681 35-141) (Fc fusion)

target: human CTLA4, full length, on transfected HEK293 cells (human) (UniProt P16410); assay: flow cytometry, Fc fusion at 66.6 nM on HEK293 cells transfected with CTLA4
Sequence (P16410 36-223 limits assumed): as the sequence (P16410 36-223 limits assumed) above

MFI at 66.6 nM [MFI]	Substance
59800	CD80 variant IgV-Fc T41S/T57I/L70R (from UniProt P33681 35-141) (Fc fusion)
